This is an account of results in the DeepSol protein solubility set.

The nature of the data set: soluble on expression in E. coli; label from the status in PepcDB or PDB records.
On to “MPQVAGGRPRPPRGFRDFPPEVMILRKRLLSRLERVFESYGFDPLDTPAVEYWETLSGKYGEEAESRLIWRFQDPWSGRWYALRYDLTVPLARFVASNPGLPMPFKRYHIGKVWRHEEPQKGRYREFVQCDADIVGSPYPEADAEIVSLAVDSIDALGLPGFRVRVNDRRLLAGVFEEELGFDNPLPIYRAIDKLDKIGVEGVRRELERLGLPGSTVERIMEIISWRGRPGEVLESVRRGYGSNEKVREALDHLEEMLSLADDKRVELDMSLVRGLDYYTGPILEVVLDEPRIGSVAGGGRYDGLVGMFAGRDIPATGVSIGIERIIDAGLELGVYSLDVKTVAQVAVVVLDRRYYRYAWEAARILRRGGLNVRIDLSRASGQVQRRKASRLGIPVLAFVGAKEAEGGFLTLYSAAKGERVAVPLGEAVKAVERLLPS”, for which the “soluble on expression in E. coli” value is given as “soluble”. “MSLTEWLTIFDSERNTLGKKLRDEVHRDGNWHETFHCWFVEKDAEDMFLYFQLRSKNKKEAPLIWDITSAGHIMHDEDVQIGGLREIEEELGLSFQTTDLAYKGIFTIDYEISNLTDREFCHMYFHNVINPLPFAPGEEVDDVMKIHATSFLQLLKREISSFTATSVLSNKSITITFSDIYPYDFAYYEFVVEQGKELLKNNDEGHHHHHH”: the “soluble on expression in E. coli” value is recorded as “soluble”. Then “MTYIIREMKQEDIHAVQSVAKIAWHDTYEGIIPREIQDSFLDEAYSDEKMKYRLKNTHLFVAEEEGEVIGFANFSPVRLQNEAELGAIYLLPDQQGKGIGSALLQRGIKALNGIRKLYIHVEAANEKGKRFYEAKGFAELEQFEEDFEGHMMQTVRMVLYV”, with “not soluble”; and “MRPGWIAADWGTSRLRVWAMGAEGVLAEARSDEGMGQIAVGGFEAALLRLIGLWLSDGPAVQVVICGMAGARQGWQEVPYRRLPCAPVDPQALVPVPSEDPRIAVRIVPGLAQAKPADVMRGEETQIAGALALLGSFDGVICLPGTHSKWAQVSAGEVVSFRSFLTGELFALLSERSVLRHGLAAEGWDDEAFLAAVSDGMSHPQKLGAKLFGLRAEALLQDLPPATARARLSGLLIGLELVGARSYWLGQPVVLVGEEALAARYGAALAAQGVQARLLPAAACTLGGLAAAVGQLTLASSGAGRKA”, with “not soluble”; and “MSGLDDRKKLTHAKNRKPLNDIPKSAENRPNTRSTSSRRGAEKDVPITFIGSSRTVKADLPEFTNTRSRRPLHSESKKELSRNPVSRGEEHSSSLPKSSPESSVSVMSSNASLWSACTEEVNKIGVCAKRESRNLRVYKMKSFTSNMEQILSNDNQLAPTVIRILNSRNSWCLNSCHACLTFIMENITSDNYGKRSACLKALASITNSLLDTIIGFASTKTRRIGVDVVAEERAAKATECIHNFRKIVKNRDKIYKQIDQETIYKLDAILERLKKVSSHK”, with “not soluble”. On to “MIVFSDLDRSIIYSNKFLNADSKYANIEIYREKEISYISLDTINLIKQIQYYGMFIPTTTRTVEQFKRIEFNKYGIYFPWSITSNGGVILKDNEILKSWSEKIDKLKSNYEPIESMIHKFKDYLNVDGITNFKVAEDTFFYIVVDLSRFNLDSIKEYTNILESKNWKFYVSGRKIYFIPKEISKENAIKYLTKELGIEYFYAVGDSIMDYGMLNISNKSYVLKHGDINKNEIENSFISSSFNGMSGTEEILSNILDENCLLNI”, for which the “soluble on expression in E. coli” value was “not soluble”. Then “MDQDYERRLLRQIVIQNENTMPRVTEMRRTLTPASSPVSSPSKHGDRFIPSRAGANWSVNFHRINENEKSPSQNRKAKDATSDNGKDGLAYSALLKNELLGAGIEKVQDPQTEDRRLQPSTPEKKGLFTYSLSTKRSSPDDGNDVSPYSLSPVSNKSQKLLRSPRKPTRKISKIPFKVLDAPELQDDFYLNLVDWSSLNVLSVGLGTCVYLWSACTSQVTRLCDLSVEGDSVTSVGWSERGNLVAVGTHKGFVQIWDAAAGKKLSMLEGHTARVGALAWNAEQLSSGSRDRMILQRDIRTPPLQSERRLQGHRQEVCGLKWSTDHQLLASGGNDNKLLVWNHSSLSPVQQYTEHLAAVKAIAWSPHQHGLLASGGGTADRCIRFWNTLTGQPLQCIDTGSQVCNLAWSKHANELVSTHGYSQNQILVWKYPSLTQVAKLTGHSYRVLYLAMSPDGEAIVTGAGDETLRFWNVFSKTRSTKESVSVLNLFTRIR”, with “soluble”; and “MDYFPIFCQLQHKACLLVGGGEIAERKARLLLDAGALVTVNACEFTPQFHHWADQGQLSLISGEFVPELLADKWLVIAATDQLSVNALVYQSANQQRIFCNVVDDPKRTSFIMPSIIDRSPIMIAVSSGGKAPVLARLLREKLEALLPQHLGQLAGNLRQRVKQHFTVMTERRRFWEKLLTHDRLAQSLANNDHVQADQHVEQLFSAPLTDRGEVVLVGAGPGDAGLLTLKGLQQIQQADVVVYDRLVSDEVMNLVRRDAERIFVGKQSGHHCVPQEQINQILLQQAQSGKRVVRLKGGDPFIFGRGGEELEELAGYGIPFSVVPGITAASGCSAYSGIPLTHRDHAQSVRLVTGHAKKEGQLDWANLAAEKQTLVFYMGLSQAGEIQQQLIQHGMPATTQVALVENGTSRHQRVVSGELSQLALLSQQVSSPSLIIVGSVVSLREKLNWFSSRHHDDQPKVTECVAHVG”, with “not soluble”; and “MSRSPDAKEDPVECPLCMEPLEIDDINFFPCTCGYQICRFCWHRIRTDENGLCPACRKPYPEDPAVYKPLSQEELQRI”, with “soluble”. Then “MGHHHHHHSHMEAEESEKAATEQEPLEGTEQTLDAEEEQEESEEAACGSKKRVVPGIVYLGHIPPRFRPLHVRNLLSAYGEVGRVFFQAEDRFVRRKKKAAAAAGGKKRSYTKDYTEGWVEFRDKRIAKRVAASLHNTPMGARRRSPFRYDLWNLKYLHRFTWSHLSEHLAFERQVRRQRLRAEVAQAKRETDFYLQSVERGQRFLAADGDPARPDGSWTFAQRPTEQELRARKAARPGGRERARLATAQDKARSNKGLLARIFGAPPPSESMEGPSLVRDS”, with “not soluble”. Then “MAPSKSKEKKEKAKTSRRKSGSQTKKDTTSTVSEGKSPTEVADQLLKAKSRPQMYDLLKGHAAFNVPEFVKNLPVNVRLPIPIRDNRRVLCGSDEEFFPGQYVRMEGAEYIIVQAPTKKSSKLIWRVILKDHIRILVCLCHDEQMSGSDDGKCYTYFPTELEQKMEAELMKGTLSIVCKAREGLSMGATKYELELTDSEVVIDKNSDDPNASNYKSHRLIVFHMNTWSGQKPTSGNALEQAQNVALFFREVKKFEMDILRKSMENFVPPVMLQSFDGINRASTGWVALMLLRDVEKRECFDVPSLIKAIMKFRNGSISTYYQFCFCMAVCLNIGKHTNWCANDCSTALTDLMEKFGNRKLNELGNLAV”, with “not soluble”; and “MSLTGETLFGTIELVGYRDNYGQIKIPRRPLNPGEKVYGVDYEFLSKFYKFDENTSINIGNLIGYDKGSNIVPVYLDVNKLVTEHLAVLAMTGSGKSYTVGRIIERLVAEMNGTVVVFDVHGEYGKAFEKGEIHFNNNLDFIEDEREKKSIQRIQENLIKMQNAGGGIKVYTPQIDSFDYKYSGKNHHLALQFDRFDMDDLSSILPGLTEAQERVLDVAIRYWKAKYNHPPRDIQDLTYLLSDEQGLEELKNWDNLTEGEAKALNNRSAAVASMKLTRVINEAKSFYTRAIGEPTDIYDMIGEKGNSVGRLVIIDLQGLSDDAKQIITALISSEIMRAASDKKRQIRPCFLVYEEGHNFAPAGIPSISKKIIKKIAAEGRKFGVGFAIISQRPSKLDPDVTSQCNTIITMRLKNPDDQRFIAKTSDMFSSSDIEELPSLSTGEALINGRSIPAPLLVKVGTKALIHGGESPEVIKEWGVFNGEGHHHHHH”, with “not soluble”; and “MSLALIVQKFGGSSVGSVERIQAVAQRVYKTVKAGNSLVVVVSAMGKTTDGLVKLANEISRNPNRREMDMLLSTGEQVTIALLSMALQELGQPAISMTGAQVGIVTEAEHTRARILHIETERVEGHIKEGKVVVVAGFQGISSNGSLEITTLGRGGSDTSAVALAAALQADFCEIYTDVPGILTTDPRIVPEAQLMGEITCNEMLELASLGAKVLHPRAVEIARNYGMPLVVKSSWTDDPGTWVTTPKPQGRSLINLELARPVDDVELDTDQAKVALLRVPDKPGVAAKLFGEISRQKVDVDLIIQSIHEGNSNDIAFTVTTPILKRAEAVAAAIAPSLRSPSHPKSDEAEVMVEQNIAKVSIAGAGMIGRPGVAAQMFATLAEAGVNIQMISTSEVKVSCVIDAQDGDRAIIALRKAFEIETPLHSQLPTPSSLSTHNSPPVRGVALDLNQARLAIRQVPDRPGMAAQLFGILSQHNISVDMIIQSQRCRIVDGVPRRDIAFTVPRMDGETAQKLLCQVAPELGWGDVVLDSAIAKVSIVGAGMVGQPGVAAKMFEALAKHQINIQMIATSEIKISCVVSQEQGVQALQVIHTAFELAGTEKFVVPAEGHHHHHH”, with “not soluble”. On to “MSRPLSIALISETYPPEVNGVANTLGRLHAGLQQLGHRVQVVRPRQPGDDGRRSDAELVLTRGWPLPGYPGLQWGMSSLHKLLRCWKRQRPDVLYIATEGPLGFSALRAARRLGIPAVSGFHTNFQQYSEHYGFGPLTRLVTGYLRWFHNRTQMTLVPSGSQRMELQRRGFERLNLLSRGVDSQLFHPSRRDPELRRRWGLGEQDIAVLHVGRLAAEKNLGLLGGTFRALCAAHPQLKLRLVLVGDGPERKHLERDLPEALFCGVQRGETLAAHYASGDLFLFPSLSETFGNVVLEAQAAGLAVVAFDQAAAGQHIRHGHNGVLAAPGDKSGFVEVASWLLDDQERLRRVRLNARQHASRQGWDSIVEHFQNYLEDACASPLVQPARSKPERPPAEDGGALPRSRELEHHHHHH”, for which the “soluble on expression in E. coli” value is “not soluble”. The entry for “APPAAGQQQPPREPPAAPGAWRQQIQWENNGQVFSLLSLGSQYQPQRRRDPGAAVPGAANASAQQPRTPILLIRDNRTAAARTRTAGSSGVTAGRPRPTARHWFQAGYSTSRAREAGASRAENQTAPGEVPALSNLRPPSRVDGMVGDDPYNPYKYSDDNPYYNYYDTYERPRPGGRYRPGYGTGYFQYGLPDLVADPYYIQASTYVQKMSMYNLRCAAEENCLASTAYRADVRDYDHRVLLRFPQRVKNQGTSDFLPSRPRYSWEWHSCHQHYHSMDEFSHYDLLDANTQRRVAEGHKASFCLEDTSCDYGYHRRFACTAHTQGLSPGCYDTYGADIDCQWIDITDVKPGNYILKVSVNPSYLVPESDYTNNVVRCDIRYTGHHAYASGCTISPY” is “soluble”. The entry for “MAAYKDLTKEELLELKSGLQAQFEEVKARGLKLDMSRGKPAAAQLNLSMEMMNILNSGTDLVCEDGVDCRNYGGLDGIAEAKQLLADMMEVPKDNVIVFGNSSLNVMYDTVARAMTHGIMGSTPWCKLDKVKFLCPVPGYDRHFAITEHFGIEMINVPMTATGPDMDLVEKLVSEDPAIKGIWCVPKYSNPQGITYSDETVYRFANLKPAAEDFRIFWDNAYCVHHLYEDKQDYLLEILMECKKAGNQDMVYKFSSTSKISFPGSGIAAIAASDANLADIRNMMKVQTIGHDKVNQLRHVRFFKDIHGIVEHMKKHADIMRPKFETVINTLERELGGLEIGSWIAPRGGYFISFDAMEGCAKAIVAKAKEAGLVMTGAGATFPYGKDPKDSNIRIAPSYPTPEELAVAAEIFVLSVKLVSIDKLLKNL” is “not soluble”; for “MGSSHHHHHHSSGLEVLFQGPHMSYQVLARKWRPQTFADVVGQEHVLTALANGLSLGRIHHAYLFSGTRGVGKTSIARLLAKGLNCETGITATPCGVCDNCREIEQGRFVDLIEIDAASRTKVEDTRDLLDNVQYAPARGRFKVYLIDEVHMLSRHSFNALLKTLEEPPEHVKFLLATTDPQKLPVTILSRCLQFHLKALDVEQIRHQLEHILNEEHIAHEPRALQLLARAAEGSLRDALSLTDQAIASGDGQVSTQAVSAMLGTLDDDQALSLVEAMVEANGERVMALINEAAARGIEWEALLVEMLGLLHRIAMVQLSPAALGNDMAAIELRMRELARTIPPTDIQLYYQTLLIGRKELPYAPDRRMGVEMTLLRALAFHPRMPLPEPEVPRQ” it is “soluble”.
